Experimental data as given in patent US20250171532A1 (NB HEALTH LABORATORY, published 2025).
Where a chain is given by its changes, count along the chain named. Like-named read-outs stand apart in the source and are kept apart here. Blank lines part the entries; values can stand above or below the binder they belong to.

What was measured:
[1] = molecular target: T1, human LPA1 (human, UniProt Q92633 1-364); assay: cell-based or functional assay
[2] = molecular target: T2, mouse LPA1 (mouse, UniProt P61793 1-364); assay: cell-based or functional assay
[3] = molecular target: T1, human LPA1; assay: flow cytometry, human LPA1-stably expressing CHO cells, median fluorescence intensity
From the text: (§1) The human LPA1-stably expressing CHO cell and the mouse LPA1-stably expressing CHO cell were washed with PBS, then detached from the cell culture dishes by an enzyme-free cell dissociation buffer (Thermo Fisher Scientific, Inc.), then washed with PBS, and then collected by centrifugation. The human LPA1-stably expressing CHO cell and the mouse LPA1-stably expressing CHO cell were suspended at 1×10⁷ cells/mL in Fc Block (Sci-Tech Biosciences, Inc.) diluted by 500 times in FACS buffer, and then allowed to stand at 4° C. for 30 minutes to block the cells. The cells were collected by centrifugation and suspended in FACS buffer at 4×10⁶ cells/mL, and this suspension was dispensed into a V-bottom 96-well plate (Thermo Fisher Scientific, Inc.) at 25 μL (1×10⁵ cells)/well. As primary antibodies, the eleven types of LPA1 antibodies produced and purified by the method described above and a mouse isotype control antibody (Fujifilm Wako Pure Chemicals Corporation) were diluted stepwise, which was added to each well at 25 μL/well, and allowed to stand at 4° C. for 1 hour. The cells were collected by centrifugation and washed with 120 μL of FACS buffer. This washing operation was repeated twice. To the cell sediment, 25 μL each of Goat Anti-Mouse IgG H&L (DyLight 650) (Abcam) that was a secondary antibody diluted by 500 times in FACS buffer was dispensed, then suspended, and then allowed to stand at 4° C. for 1 hour. The cells were washed twice, then suspended in 50 μL of FACS buffer, and the binding of antibodies to the cells was measured using a flow cytometer (Agilent Novocyte).
(§2) A graph was created, in which a concentration of the antibody was plotted on the […] axis, and a median fluorescence intensity of the flow cytometer histogram was plotted on the horizontal axis. All of the eleven antibodies were confirmed to dose-dependently bind to the human LPA1-stably expressing CHO cell and the mouse LPA1-stably expressing CHO cell. The results of the binding of each antibody to the human LPA1-stably expressing CHO cell are presented in FIG. 2A to FIG. 2K, and the results of the binding of each antibody to the mouse LPA1-stably expressing CHO cell are presented in FIG. 3A to FIG. 3K.

[4] = molecular target: T3, mouse LPA2 with FLAG tag (mouse LPA2 gene transfected cell) (mouse, UniProt Q9JL06 1-348); assay: flow cytometry, transfected HEK293FT cells, histogram shift
T3 construct: not shown: FLAG tag added at the 5' terminal of the gene
Description: (§3) BTEK293FT cell was transfected with 10 μg of an expression vector carrying each synthetic gene using Lipofectamine 2000, to prepare a human LPA1 gene transfected cell, a mouse LPA1 gene transfected cell, a human LPA2 gene transfected cell, a mouse LPA2 gene transfected cell, a human LPA3 gene transfected cell, and a mouse LPA3 gene transfected cell.
(§4) The next day, the cells were washed with PBS, then detached from the cell culture dishes by an enzyme-free cell dissociation buffer (Thermo Fisher Scientific, Inc.), then washed with PBS, and then collected by centrifugation. Goat serum (Thermo Fisher Scientific, Inc.) was diluted by 2 times in FACS buffer (PBS containing 1% o of FBS), into which the cells were suspended at 1×10⁷ cells/mL. This suspension was allowed to stand at 4° C. for 30 minutes to block the cells. The cells were collected by centrifugation and suspended in FACS buffer at 4×10⁶ cells/mL, and this suspension was dispensed into a V-bottom 96-well plate (Thermo Fisher Scientific, Inc.) at 25 μL (1×10⁵ cells)/well.
(§5) The cells were collected by centrifugation and washed with 120 μL of FACS buffer. This washing operation was repeated twice. To the cell sediment, 25 μL each of Goat Anti-Mouse IgG H&L (DyLight 650) (Abcam) that was a secondary antibody diluted by 500 times in FACS buffer was dispensed, then suspended, and then allowed to stand at 4° C. for 1 hour. The cells were washed twice, then suspended in 50 μL of FACS buffer, and the whole content thereof was transferred to a V-bottom 96-well plate (Greiner), to measure the binding of antibodies to the cells using a flow cytometer (Agilent Novocyte).

[5] = molecular target: T4, mouse LPA3 with FLAG tag (mouse LPA3 gene transfected cell) (mouse, UniProt Q9EQ31 1-354); assay: as above
T4 construct: not shown: FLAG tag added at the 5' terminal of the gene
T4 sequence: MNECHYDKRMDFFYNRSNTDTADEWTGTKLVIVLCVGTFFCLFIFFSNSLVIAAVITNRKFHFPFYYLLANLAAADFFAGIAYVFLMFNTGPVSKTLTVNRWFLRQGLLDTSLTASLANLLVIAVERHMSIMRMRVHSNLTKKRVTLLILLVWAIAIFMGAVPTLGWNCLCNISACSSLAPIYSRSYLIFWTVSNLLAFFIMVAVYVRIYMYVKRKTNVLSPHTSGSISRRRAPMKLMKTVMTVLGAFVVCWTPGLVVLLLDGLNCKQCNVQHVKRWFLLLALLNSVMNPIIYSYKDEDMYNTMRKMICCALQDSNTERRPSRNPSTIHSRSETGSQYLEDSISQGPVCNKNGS
Description: as §3, §4, §5

[6] = molecular target: T5, human LPA3 with FLAG tag (human LPA3 gene transfected cell) (human, UniProt Q9UBY5 1-353); assay: as above
T5 construct: also called EDG7; not shown: FLAG tag added at the 5' terminal of the gene
T5 sequence: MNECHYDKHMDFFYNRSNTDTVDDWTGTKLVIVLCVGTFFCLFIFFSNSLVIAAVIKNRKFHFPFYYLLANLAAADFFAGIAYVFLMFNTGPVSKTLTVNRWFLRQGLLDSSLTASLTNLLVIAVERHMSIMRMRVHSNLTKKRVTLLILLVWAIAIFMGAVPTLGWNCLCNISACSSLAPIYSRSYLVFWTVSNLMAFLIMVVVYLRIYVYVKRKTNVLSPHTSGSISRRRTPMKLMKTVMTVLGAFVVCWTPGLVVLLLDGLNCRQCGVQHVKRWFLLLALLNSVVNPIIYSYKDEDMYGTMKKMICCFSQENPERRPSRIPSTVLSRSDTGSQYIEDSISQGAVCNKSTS
Description: as §3, §4, §5

[7] = molecular target: T6, human LPA2 with FLAG tag (human LPA2 gene transfected cell) (human, UniProt Q9HBW0 1-348); assay: as above
T6 construct: also called EDG4; not shown: FLAG tag added at the 5' terminal of the gene
Description: as §3, §4, §5

[8] = molecular target: T1, human LPA1; assay: flow cytometry, human LPA1-stably expressing CHO cells, median fluorescence intensity; remark: listed apart in the source
From the text: as §1
Subsequently, the binding activity of the human LPA1-stably expressing CHO cell to human LPA1 was measured according to the method in Example 6. A graph was created, in which a concentration of the antibody was plotted on the […] axis, and a median fluorescence intensity of the flow cytometer histogram was plotted on the horizontal axis. […] The intracellular cAMP signaling inhibitory activity was also measured according to the method in Example 7.

[9] = molecular target: T2, mouse LPA1; assay: flow cytometry, mouse LPA1-stably expressing CHO cells, median fluorescence intensity
From the text: as §1, §2

[10] = molecular target: T1, human LPA1; assay: cell-based or functional assay; remark: listed apart in the source
[11] = molecular target: T2, mouse LPA1; assay: cell-based or functional assay; remark: listed apart in the source
[12] = molecular target: T1, human LPA1; assay: cell-based or functional assay; remark: listed apart in the source

T1 sequence (Q92633 whole entry): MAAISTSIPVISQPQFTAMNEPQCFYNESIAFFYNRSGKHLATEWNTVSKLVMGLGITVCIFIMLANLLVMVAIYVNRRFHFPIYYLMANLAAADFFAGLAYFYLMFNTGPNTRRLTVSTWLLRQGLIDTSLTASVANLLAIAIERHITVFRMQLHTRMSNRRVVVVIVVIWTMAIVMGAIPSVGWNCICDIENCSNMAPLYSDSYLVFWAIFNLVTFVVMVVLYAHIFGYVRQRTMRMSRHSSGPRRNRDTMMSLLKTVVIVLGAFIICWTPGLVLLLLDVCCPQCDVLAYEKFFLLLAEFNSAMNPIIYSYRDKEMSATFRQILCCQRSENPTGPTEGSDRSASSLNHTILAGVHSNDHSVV
T2 sequence (P61793 whole entry): as the sequence (Q92633 whole entry) above, with I4A, I8S, P22Q, H40Y, I61V, E193D, N194H, I269V, S331N, T335N counted along it
T3 sequence (Q9JL06 whole entry): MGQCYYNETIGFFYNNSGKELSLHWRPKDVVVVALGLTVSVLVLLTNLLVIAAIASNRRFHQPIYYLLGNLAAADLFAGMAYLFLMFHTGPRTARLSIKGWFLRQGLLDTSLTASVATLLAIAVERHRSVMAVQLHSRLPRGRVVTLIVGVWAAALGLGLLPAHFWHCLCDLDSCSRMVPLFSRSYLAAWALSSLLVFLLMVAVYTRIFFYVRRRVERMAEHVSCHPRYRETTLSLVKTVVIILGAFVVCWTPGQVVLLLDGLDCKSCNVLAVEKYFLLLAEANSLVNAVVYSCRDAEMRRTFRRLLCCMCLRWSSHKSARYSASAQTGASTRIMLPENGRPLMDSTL
T6 sequence (Q9HBW0 other isoform, or with tags, fused parts or gaps): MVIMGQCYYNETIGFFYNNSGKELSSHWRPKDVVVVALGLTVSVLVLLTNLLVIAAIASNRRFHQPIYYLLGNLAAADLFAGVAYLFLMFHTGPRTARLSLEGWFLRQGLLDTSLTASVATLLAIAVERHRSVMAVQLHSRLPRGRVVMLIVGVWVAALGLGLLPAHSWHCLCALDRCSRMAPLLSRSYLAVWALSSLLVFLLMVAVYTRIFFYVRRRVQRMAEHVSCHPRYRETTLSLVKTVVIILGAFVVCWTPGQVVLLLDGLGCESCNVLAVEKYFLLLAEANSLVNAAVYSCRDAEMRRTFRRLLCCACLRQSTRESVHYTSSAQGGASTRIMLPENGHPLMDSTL

B2: 309-4-A-Chimera (antibody, human IgG1, kappa, L234A L235A, V domains shown)
VH: QVQLQQSGAELARPGASVKLSCKASGYTFTSYGISWVKQRTGQGLEWIGEIYPRSGNTYYNEKFKGKATLTADKSSSTAYMELRSLTSEDSAVYFCARESISRRLGWNFDVWGTGTTVTVSS
VL: DIHMTQSPASLSASVGETVTITCRASENIYSFLAWYQQKQGKSPHLVVYNAKTLTEGVPSRFSGSGSGTHFSLKINSLQPEDFGIYYCQHHYGPPLTFGAGTKLELKR
notes: also called chimeric anti-LPA1 antibody
EC50 [8]: 4.4 nM | Intracellular cAMP signaling inhibition IC50 [12]: 1 nM

B3: h309-4-A-SS1 (antibody, human IgG1, kappa, L234A L235A, V domains shown)
VH: QVQLQESGPGLVKPSETLSLTCTASGYTFTSYGISWVRQTPGKGLEWIGEIYPRSGNTYYNEKFKGRATLSADKSKNQASLKLKSVTAADTAIYFCARESISRRLGWNFDVWGRGTLVTVSG
VL: DIQMTQTPSSLSASVGDRVTITCRASENIYSFLAWYQQKPGEAPKRVVYNAKTLTEGVPSRFSGSGSGTDFTLTISSLQPEDFATYYCQHHYGPPLTFGQGTKLEIKR
notes: also called humanized anti-LPA1 antibody
EC50 [8]: 4.9 nM | Intracellular cAMP signaling inhibition IC50 [12]: 5.2 nM

B4: h309-4-A-BP1 (antibody, human IgG1, kappa, L234A L235A, V domains shown)
VH: QVQLVQSGAEVKKPGASVKVSCKASGYTFTSYGISWVRQAPGQGLEWMGEIYPRSGNTYYNEKFKGRVTLTADKSTSTAYMELRSLTSEDTAVYFCARESISRRLGWNFDVWGQGTTVTVSS
VL: DIQMTQSPSSLSASVGDTVTITCRASENIYSFLAWYQQKPGKAPKLLIYNAKTLTEGVPSRFSGSGSGTHFSLTINSLQPEDFGIYYCQHHYGPPLTFGQGTKLEIKR
notes: as for B3
EC50 [8]: 4.3 nM | Intracellular cAMP signaling inhibition IC50 [12]: 4.4 nM

Continued by falling EC50 [8], values first:

EC50 [8]: 4.2 nM | Intracellular cAMP signaling inhibition IC50 [12]: 5.7 nM
B5: h309-4-A-SG1 (antibody, human IgG1, kappa, L234A L235A, V domains shown)
VH: B4 VH with M48I, V68A, T87R, E89D, Q114T
VL: B3 VL with T7S, E42K, R46L, Q100A, I106L
notes: as for B3

Intracellular cAMP signaling inhibition (Inhibition rate %/100 nM) [1]: 95% | Intracellular cAMP signaling inhibition (Inhibition rate %/100 nM) [2]: 50% | EC50 [3]: 1.5 nM | EC50 [8]: 1.4 nM | EC50 [9]: 1.1 nM | Intracellular cAMP signaling inhibition IC50 [10]: 5.3 nM | Intracellular cAMP signaling inhibition IC50 [11]: 23.8 nM | Intracellular cAMP signaling inhibition IC50 [12]: 4.5 nM
B1: 210309-4-A (antibody, mouse IgG1, V domains shown)
VH: B2 VH
VL: DIHMTQSPASLSASVGETVTITCRASENIYSFLAWYQQKQGKSPHLVVYNAKTLTEGVPSRFSGSGSGTHFSLKINSLQPEDFGIYYCQHHYGPPLTFGAGTKLELK
notes: Mouse monoclonal from human LPA1 immunization
binding result [4]: no binding (tested: 25 g/mL (so in the source)) | binding result [5]: no binding (tested: 25 g/mL (so in the source)) | binding result [6]: no binding (tested: 25 g/mL (so in the source)) | binding result [7]: no binding (tested: 25 g/mL (so in the source))
